Results reported in patent US20100260668A1 (published 2010).
Where “and” joins values, the source holds several entries; their conditions need not be identical. Identical values can stand only once.

Columns and labels:
[1] = biological target: T1, human DLL4 on 293G-human DLL4 cells (human, UniProt Q9NR61 27-685); assay: FACS: inhibition of Notch1 binding to 293G-human DLL4 cells (competitor Notch1)
T1 construct: whole, on cells; no method paragraph describes this FACS assay

[2] = biological target: T2, human DLL4 extracellular domain (human, UniProt Q9NR61 27-529, biotin label in the Notch-1 competition ELISA (sites not given)); assay: competition ELISA: 14 nM biotin-labelled human DLL4 ECD pre-mixed with antibody, then on coated human Notch-1 (competitor Notch-1)
T2 construct: extracellular domain; also called biotin labeled human DLL4 extracellular domain

[3] = biological target: T2, human DLL4 extracellular domain; assay: cell-based or functional assay
[4] = biological target: T2, human DLL4 extracellular domain; assay: competition ELISA: biotin-labelled human DLL4 ECD pre-mixed with antibody, then on coated human Notch-1 (competitor Notch-1)
[5] = biological target: T3, NRP1 (Neuropilin-1 Npn-1-His tag) (UniProt O14786-2 22-644); assay: Direct Bind ELISA, antigen on plate
T3 construct: Bought reagent

[6] = biological target: T3, NRP1 (Neuropilin-1 Npn-1-His tag); assay: Direct Bind ELISA, antigen on plate; C-terminal VD
[7] = biological target: T3, NRP1 (Neuropilin-1 Npn-1-His tag); assay: Direct Bind ELISA, antigen on plate; N-terminal VD
PlGF (Placental GF) = biological target: T4, PlGF (Placental GF) (UniProt P49763-2 21-149, limits assumed); assay: Direct Bind ELISA, antigen on plate
T4 construct: Bought reagent
T4 sequence (looked up): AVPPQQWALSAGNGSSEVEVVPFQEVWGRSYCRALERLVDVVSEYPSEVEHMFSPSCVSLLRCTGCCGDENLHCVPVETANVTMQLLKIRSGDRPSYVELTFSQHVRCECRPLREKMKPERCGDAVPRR

[8] = biological target: T5, CD40/FC (CD40 ECD/FC chimera-His tag) (UniProt P25942 21-193); assay: Direct Bind ELISA, C-terminal variable domain
T5 construct: extracellular domain; bought reagent; not shown: IgG FC domain and His tag of the bought chimera

[9] = biological target: T6, recombinant His-RON partial ECD (R&D Systems #1947-MS) (UniProt Q04912 25-957, limits assumed); assay: competition ELISA: DVD-Ig pre-incubated with 10 nM His-RON partial ECD, then on captured MSP1 (competitor MSP1)
T6 construct: extracellular domain; also called MSP Receptor ECD-His tag; not shown: His tag

recombinant human HGF = biological target: T7, recombinant human HGF (human, UniProt P14210 32-728); assay: competition ELISA: antibody co-incubated with 2 nM soluble c-Met Fc on coated HGF (competitor c-Met Fc)
T7 construct: The target there is entered as this HGF; also called hepatocyte growth factor

[10] = biological target: T8, placental growth factor (PLGF) (UniProt P49763-2 21-149, limits assumed); assay: ligand-receptor binding competition assay, PlGF binding to VEGFR1
T8 construct: also called P1GF
T8 sequence (looked up): T4 sequence (looked up)

CD-19 [11] = biological target: T9, CD-19 (human, UniProt P15391 20-556); assay: flow cytometry on cells carrying the target, 2 ug/mL; parent antibody
T9 construct: whole, on cells
T9 sequence (looked up): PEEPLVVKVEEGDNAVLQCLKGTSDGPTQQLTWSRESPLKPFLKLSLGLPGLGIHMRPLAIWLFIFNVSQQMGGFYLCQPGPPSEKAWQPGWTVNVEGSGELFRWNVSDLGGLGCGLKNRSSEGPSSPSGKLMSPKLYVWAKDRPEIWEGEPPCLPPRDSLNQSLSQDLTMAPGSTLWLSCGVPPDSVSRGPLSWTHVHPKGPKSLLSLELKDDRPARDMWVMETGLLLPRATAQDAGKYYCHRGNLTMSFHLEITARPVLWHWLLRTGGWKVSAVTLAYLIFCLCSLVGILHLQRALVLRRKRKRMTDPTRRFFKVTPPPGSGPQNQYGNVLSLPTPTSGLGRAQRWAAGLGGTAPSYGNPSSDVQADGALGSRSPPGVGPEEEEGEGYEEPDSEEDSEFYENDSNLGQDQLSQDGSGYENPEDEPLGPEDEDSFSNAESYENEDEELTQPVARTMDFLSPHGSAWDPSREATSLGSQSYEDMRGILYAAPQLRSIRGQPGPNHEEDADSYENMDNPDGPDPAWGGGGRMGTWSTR

CD-19 [12] = biological target: T9, CD-19; assay: flow cytometry on cells carrying the target, 2 ug/mL; N-terminal VD

T7 sequence (P14210 32-728 limits assumed): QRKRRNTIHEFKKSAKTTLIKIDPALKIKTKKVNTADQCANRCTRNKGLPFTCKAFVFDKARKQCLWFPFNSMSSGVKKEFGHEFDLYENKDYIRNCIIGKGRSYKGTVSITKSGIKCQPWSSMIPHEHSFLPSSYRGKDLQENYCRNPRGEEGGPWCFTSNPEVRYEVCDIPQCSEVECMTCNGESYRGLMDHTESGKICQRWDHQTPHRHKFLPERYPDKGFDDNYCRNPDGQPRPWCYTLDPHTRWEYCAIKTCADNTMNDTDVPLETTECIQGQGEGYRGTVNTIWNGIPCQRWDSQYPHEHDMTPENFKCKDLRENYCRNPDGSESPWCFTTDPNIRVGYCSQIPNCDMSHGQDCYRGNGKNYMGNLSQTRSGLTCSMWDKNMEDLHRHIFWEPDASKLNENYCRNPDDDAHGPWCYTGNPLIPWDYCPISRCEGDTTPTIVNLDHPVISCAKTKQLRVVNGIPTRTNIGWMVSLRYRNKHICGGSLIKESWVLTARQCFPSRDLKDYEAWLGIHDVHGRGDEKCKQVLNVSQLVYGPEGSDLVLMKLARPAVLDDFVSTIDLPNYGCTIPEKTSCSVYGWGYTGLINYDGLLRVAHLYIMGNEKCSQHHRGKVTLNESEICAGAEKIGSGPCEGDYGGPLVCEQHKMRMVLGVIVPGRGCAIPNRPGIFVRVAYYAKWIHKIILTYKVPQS
T5 sequence (P25942 21-193, change not shown): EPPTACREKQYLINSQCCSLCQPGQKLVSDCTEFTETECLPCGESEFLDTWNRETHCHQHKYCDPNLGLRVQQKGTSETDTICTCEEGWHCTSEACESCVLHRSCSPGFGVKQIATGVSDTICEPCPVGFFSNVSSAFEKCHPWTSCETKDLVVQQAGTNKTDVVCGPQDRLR

B1: AB015 (anti-DLL-4 (seq. 1) parent antibody) (antibody, human IgG1, kappa)
heavy: not shown
light: DIQMTQSPSSLSASVGDRVTITCRASQDVSTAVAWYQQKPGKAPKLLIYSASFLYSGVPSRFSGSGSGTDFTLTISSLQPEDFATTYYCQQSYTGTVTFGQGTKVEIKRTVAAPSVFIFPPSDEQLKSGTASVVCLLNNFYPREAKVQWKVDNALQSGNSQESVTEQDSKDSTYSLSSTLTLSKADYEKHKVYACEVTHQGLSSPVTKSFNRGEC
notes: also called AB015VH/AB015VL
- IC50 [1]: 2.3 nM
- IC50 [2]: 2.47 nM and 2.69 nM and 2.53 nM and 2.74 nM
- Ref. Ab Inhibition of sFlt1 (IC50, nM) [3]: 0.34 nM
- IC50 [4]: 0.37 nM and 0.4 nM

B2: AB016 (anti-NRP1 (seq. 1) parent antibody) (antibody, IgG1, V domains shown)
VH: EVQLVESGGGLVQPGGSLRLSCAASGFSFSSEPISWVRQAPGKGLEWVSSITGKNGYTYYADSVKGRFTISADTSKNTAYLQMNSLRAEDTAVYYCARWGKKVYGMDVWGQGTLVTVSS
VL: DIQMTQSPSSLSASVGDRVTITCRASQSISSYLAWYQQKPGKAPKLLIYGASSRASGVPSRFSGSGSGTDFTLTISSLQPEDFATYYCQQYMSVPITFGQGTKVEIKR
notes: HC vector V1 (wild-type hIgG1 constant), LC vector V2 (kappa constant); also called AB016VH; AB016VL
- EC50 [5]: 0.58 nM

B3: DVD049 (VEGF (seq. 1) and NRP1 (seq. 1) DVD-Ig) (bispecific antibody, IgG1)
VH: EVQLVESGGGLVQPGGSLRLSCAASGYTFTNYGMNWVRQAPGKGLEWVGWINTYTGEPTYAADFKRRFTFSLDTSKSTAYLQMNSLRAEDTAVYYCAKYPHYYGSSHWYFDVWGQGTLVTVSSASTKGPEVQLVESGGGLVQPGGSLRLSCAASGFSFSSEPISWVRQAPGKGLEWVSSITGKNGYTYYADSVKGRFTISADTSKNTAYLQMNSLRAEDTAVYYCARWGKKVYGMDVWGQGTLVTVSS
VL: DIQMTQSPSSLSASVGDRVTITCSASQDISNYLNWYQQKPGKAPKVLIYFTSSLHSGVPSRFSGSGSGTDFTLTISSLQPEDFATYYCQQYSTVPWTFGQGTKVEIKRTVAAPDIQMTQSPSSLSASVGDRVTITCRASQSISSYLAWYQQKPGKAPKLLIYGASSRASGVPSRFSGSGSGTDFTLTISSLQPEDFATYYCQQYMSVPITFGQGTKVEIKR
notes: HC vector V1 (wild-type hIgG1 constant), LC vector V2 (kappa constant); also called DVD049H; DVD049L
- EC50 [6]: 0.5 nM

B4: DVD050 (NRP1 (seq. 1) and VEGF (seq. 1) DVD-Ig) (bispecific antibody, IgG1)
VH: EVQLVESGGGLVQPGGSLRLSCAASGFSFSSEPISWVRQAPGKGLEWVSSITGKNGYTYYADSVKGRFTISADTSKNTAYLQMNSLRAEDTAVYYCARWGKKVYGMDVWGQGTLVTVSSASTKGPEVQLVESGGGLVQPGGSLRLSCAASGYTFTNYGMNWVRQAPGKGLEWVGWINTYTGEPTYAADFKRRFTFSLDTSKSTAYLQMNSLRAEDTAVYYCAKYPHYYGSSHWYFDVWGQGTLVTVSS
VL: DIQMTQSPSSLSASVGDRVTITCRASQSISSYLAWYQQKPGKAPKLLIYGASSRASGVPSRFSGSGSGTDFTLTISSLQPEDFATYYCQQYMSVPITFGQGTKVEIKRTVAAPDIQMTQSPSSLSASVGDRVTITCSASQDISNYLNWYQQKPGKAPKVLIYFTSSLHSGVPSRFSGSGSGTDFTLTISSLQPEDFATYYCQQYSTVPWTFGQGTKVEIKR
notes: HC vector V1 (wild-type hIgG1 constant), LC vector V2 (kappa constant); also called DVD050H; DVD050L
- EC50 [7]: 0.46 nM

B5: AB047 (anti-PLGF (seq. 1) parent antibody) (antibody, IgG1, V domains shown)
VH: QVQLQQSGAELVKPGASVKISCKASGYTFTDYYINWVKLAPGQGLEWIGWIYPGSGNTKYNEKFKGKATLTIDTSSSTAYMQLSSLTSEDTAVYFCVRDSPFFDYWGQGTLLTVSS
VL: DIVLTQSPDSLAVSLGERVTMNCKSSQSLLNSGMRKSFLAWYQQKPGQSPKLLIYWASTRESGVPDRFTGSGSGTDFTLTISSVQAEDVAVYYCKQSYHLFTFGSGTKLEIKR
notes: HC vector V1 (wild-type hIgG1 constant), LC vector V2 (kappa constant); also called AB047VH; AB047VL
- EC50 (PlGF (Placental GF)): 0.2 nM

B6: DVD009 DVD-Ig (bispecific antibody, human IgG1, kappa)
heavy: not shown
light: QIVLSQSPAILSPSPGEKVTMTCRASSSVSYIHWFQQKPGSSPKPWIYATSNLASGVPVRFSGSGSGTSYSLTISRVEAEDAATYYCQQWTSNPPTFGGGTKLEIKRTVAAPDIVMTQSPLSLTVTPGEPASISCRSSQSLLYSNGYNYLDWYLQKPGQSPQVLISLGSNRASGVPDRFSGSGSGTDFTLKISRVEAEDVGVYYCMQARQTPFTFGPGTKVDIRRTVAAPSVFIFPPSDEQLKSGTASVVCLLNNFYPREAKVQWKVDNALQSGNSQESVTEQDSKDSTYSLSSTLTLSKADYEKHKVYACEVTHQGLSSPVTKSFNRGEC
notes: outer AB001 (CD-20), inner AB009 (CD-40); HC/LC linkers short/short; also called DVD009H; DVD009L
- binding result [8]: binds

B7: DVD047 (VEGF (seq. 1) N-terminal / RON (seq. 1) C-terminal DVD-Ig) (bispecific antibody, human IgG1, kappa)
heavy: not shown
light: DIQMTQSPSSLSASVGDRVTITCSASQDISNYLNWYQQKPGKAPKVLIYFTSSLHSGVPSRFSGSGSGTDFTLTISSLQPEDFATYYCQQYSTVPWTFGQGTKVEIKRTVAAPDVVMTQSPLSLPVTPGEPASISCRSSQSLLHSNGFNYVDWYLQKPGQSPHLLIYFGSYRASGVPDRFSGSGSGTDFTLKISRVEAEDVGVYYCMQALQTPPWTFGQGTKVEIRRTVAAPSVFIFPPSDEQLKSGTASVVCLLNNFYPREAKVQWKVDNALQSGNSQESVTEQDSKDSTYSLSSTLTLSKADYEKHKVYACEVTHQGLSSPVTKSFNRGEC
notes: also called DVD047H/DVD047L
- IC50 [9]: 21.3 nM

B8: AB012 (anti-HGF (seq. 1) parent antibody) (antibody, human IgG1, kappa, V domains shown)
VH: QVQLVESGGGLVKPGGSLRLSCAASGFTFSDYYMSWIRQAPGKGLEWVSYISSSGSTIYYADSVKGRFTISRDNAKNSLYLQMNSLRAEDTAVYYCARDEYNSGWYVLFDYWGQGTLVTVSS
VL: DIQMTQSPSSVSASVGDRVTITCRASQGISSWLAWYQQKPGKAPNLLIYEASSLQSGVPSRFGGSGSGTDFTLTISSLQPEDFATYYCQQANGFPWTFGQGTKVEIKR
notes: also called AB012VH/AB012VL
- IC50 (recombinant human HGF): 0.18 nM

B9: AB047 (antibody, human IgG1, kappa, V domains shown)
VH: B5 VH
VL: B5 VL
notes: Parent anti-PlGF antibody; also called AB047VH
- IC50 [10]: 3.07 nM

B10: AB006 (antibody, human IgG1, kappa, V domains shown)
VH: QVQLQQSGAELVRPGSSVKISCKASGYAFSSYWMNWVKQRPGQGLEWIGQIWPGDGDTNYNGKFKGKATLTADESSSTAYMQLSSLASEDSAVYFCARRETTTVGRYYYAMDYWGQGTSVTVSS
VL: DILLTQTPASLAVSLGQRATISCKASQSVDYDGDSYLNWYQQIPGQPPKLLIYDASNLVSGIPPRFSGSGSGTDFTLNIHPVEKVDAATYHCQQSTEDPWTFGGGTKLEIKR
notes: Parent antibody
- FACS Geometric Mean (CD-19 [11]): 979

B11: DVD002 (bispecific antibody, human IgG1, kappa)
heavy: not shown
light: DILLTQTPASLAVSLGQRATISCKASQSVDYDGDSYLNWYQQIPGQPPKLLIYDASNLVSGIPPRFSGSGSGTDFTLNIHPVEKVDAATYHCQQSTEDPWTFGGGTKLEIKRTVAAPQIVLSQSPAILSPSPGEKVTMTCRASSSVSYIHWFQQKPGSSPKPWIYATSNLASGVPVRFSGSGSGTSYSLTISRVEAEDAATYYCQQWTSNPPTFGGGTKLEIKRTVAAPSVFIFPPSDEQLKSGTASVVCLLNNFYPREAKVQWKVDNALQSGNSQESVTEQDSKDSTYSLSSTLTLSKADYEKHKVYACEVTHQGLSSPVTKSFNRGEC
notes: DVD-Ig; outer AB006 (CD-19), inner AB001 (CD-20); also called CD-19 and CD-20 DVD-Ig
- FACS Geometric Mean N-terminal (CD-19 [12]): 1100
